Test results: patent US20240018188A1
[ ]: non-standard residue; d: D form. The star is where a group is joined. Dansyl = CN(C)c1cccc2c(S(=O)(=O)*)cccc12; 2Nal = N[C@@H](Cc1ccc2ccccc2c1)C(=O)O; dNle = CCCC[C@@H](N)C(=O)O; Ahx = NCCCCCC(=O)O; βAla = NCCC(=O)O; Sar = CNCC(=O)O

B1: Compound 19 (peptide)
peptide: Dansyl-[Sar][dL][dNle][dR][dS][dV][dR][dL][dR][dV]G[dL][dR][dK][dR][dR][dR][dR][dR]-NH2
SMILES: CCCC[C@@H](NC(=O)[C@@H](CC(C)C)NC(=O)CN(C)S(=O)(=O)c1cccc2c(N(C)C)cccc12)C(=O)N[C@H](CCCNC(=N)N)C(=O)N[C@H](CO)C(=O)N[C@@H](C(=O)N[C@H](CCCNC(=N)N)C(=O)N[C@H](CC(C)C)C(=O)N[C@H](CCCNC(=N)N)C(=O)N[C@@H](C(=O)NCC(=O)N[C@H](CC(C)C)C(=O)N[C@H](CCCNC(=N)N)C(=O)N[C@H](CCCCN)C(=O)N[C@H](CCCNC(=N)N)C(=O)N[C@H](CCCNC(=N)N)C(=O)N[C@H](CCCNC(=N)N)C(=O)N[C@H](CCCNC(=N)N)C(=O)N[C@H](CCCNC(=N)N)C(N)=O)C(C)C)C(C)C
B2: Compound 20 (peptide)
peptide: Dansyl-[Sar][dL][dNle][dR][dS][dV][dR][dL][dR][dV]G[dL][dR][dR][dR][dR][dR][dR][Sar][Sar]-OMe
SMILES: CCCC[C@@H](NC(=O)[C@@H](CC(C)C)NC(=O)CN(C)S(=O)(=O)c1cccc2c(N(C)C)cccc12)C(=O)N[C@H](CCCNC(=N)N)C(=O)N[C@H](CO)C(=O)N[C@@H](C(=O)N[C@H](CCCNC(=N)N)C(=O)N[C@H](CC(C)C)C(=O)N[C@H](CCCNC(=N)N)C(=O)N[C@@H](C(=O)NCC(=O)N[C@H](CC(C)C)C(=O)N[C@H](CCCNC(=N)N)C(=O)N[C@H](CCCNC(=N)N)C(=O)N[C@H](CCCNC(=N)N)C(=O)N[C@H](CCCNC(=N)N)C(=O)N[C@H](CCCNC(=N)N)C(=O)N[C@H](CCCNC(=N)N)C(=O)N(C)CC(=O)N(C)CC(=O)OC)C(C)C)C(C)C
B3: Compound 21 (peptide)
peptide: Ac-[dL][dNle][dR][dS][dV][dR][dL][dR][dV]G[dL][dR][dR][dR][dR][dR][dR][Sar][Sar]-OMe
SMILES: CCCC[C@@H](NC(=O)[C@@H](CC(C)C)NC(C)=O)C(=O)N[C@H](CCCNC(=N)N)C(=O)N[C@H](CO)C(=O)N[C@@H](C(=O)N[C@H](CCCNC(=N)N)C(=O)N[C@H](CC(C)C)C(=O)N[C@H](CCCNC(=N)N)C(=O)N[C@@H](C(=O)NCC(=O)N[C@H](CC(C)C)C(=O)N[C@H](CCCNC(=N)N)C(=O)N[C@H](CCCNC(=N)N)C(=O)N[C@H](CCCNC(=N)N)C(=O)N[C@H](CCCNC(=N)N)C(=O)N[C@H](CCCNC(=N)N)C(=O)N[C@H](CCCNC(=N)N)C(=O)N(C)CC(=O)N(C)CC(=O)OC)C(C)C)C(C)C
B4: Compound 22 (peptide)
peptide: Ac-[dL][dNle][dR][βAla][dV][dR][dL][dR][dV][βAla][dL][dR][dK][dR][dR][dR][dR][dR]G[2Nal]-NH2
SMILES: CCCC[C@@H](NC(=O)[C@@H](CC(C)C)NC(C)=O)C(=O)N[C@H](CCCNC(=N)N)C(=O)NCCC(=O)N[C@@H](C(=O)N[C@H](CCCNC(=N)N)C(=O)N[C@H](CC(C)C)C(=O)N[C@H](CCCNC(=N)N)C(=O)N[C@@H](C(=O)NCCC(=O)N[C@H](CC(C)C)C(=O)N[C@H](CCCNC(=N)N)C(=O)N[C@H](CCCCN)C(=O)N[C@H](CCCNC(=N)N)C(=O)N[C@H](CCCNC(=N)N)C(=O)N[C@H](CCCNC(=N)N)C(=O)N[C@H](CCCNC(=N)N)C(=O)N[C@H](CCCNC(=N)N)C(=O)NCC(=O)N[C@@H](Cc1ccc2ccccc2c1)C(N)=O)C(C)C)C(C)C
B5: Compound 23 (peptide)
peptide: Ac-[dL][dNle][dR][dA][dV][dR][dL][dR][dV][βAla][dL][dR][Ahx][dR][Ahx][dR][Ahx][dR][Ahx][dR][Ahx][dR]-NH2
SMILES: CCCC[C@@H](NC(=O)[C@@H](CC(C)C)NC(C)=O)C(=O)N[C@H](CCCNC(=N)N)C(=O)N[C@H](C)C(=O)N[C@@H](C(=O)N[C@H](CCCNC(=N)N)C(=O)N[C@H](CC(C)C)C(=O)N[C@H](CCCNC(=N)N)C(=O)N[C@@H](C(=O)NCCC(=O)N[C@H](CC(C)C)C(=O)N[C@H](CCCNC(=N)N)C(=O)NCCCCCC(=O)N[C@H](CCCNC(=N)N)C(=O)NCCCCCC(=O)N[C@H](CCCNC(=N)N)C(=O)NCCCCCC(=O)N[C@H](CCCNC(=N)N)C(=O)NCCCCCC(=O)N[C@H](CCCNC(=N)N)C(=O)NCCCCCC(=O)N[C@H](CCCNC(=N)N)C(N)=O)C(C)C)C(C)C
B6: Compound 24 (peptide)
peptide: Ac-[dL][dNle][dR][dA][dV][dR][dL][dR][dV][βAla][dL][dR][Ahx][dR][Ahx][dR][Ahx][dR][Ahx][dR][Ahx][dR][Ahx][dY]-NH2
SMILES: CCCC[C@@H](NC(=O)[C@@H](CC(C)C)NC(C)=O)C(=O)N[C@H](CCCNC(=N)N)C(=O)N[C@H](C)C(=O)N[C@@H](C(=O)N[C@H](CCCNC(=N)N)C(=O)N[C@H](CC(C)C)C(=O)N[C@H](CCCNC(=N)N)C(=O)N[C@@H](C(=O)NCCC(=O)N[C@H](CC(C)C)C(=O)N[C@H](CCCNC(=N)N)C(=O)NCCCCCC(=O)N[C@H](CCCNC(=N)N)C(=O)NCCCCCC(=O)N[C@H](CCCNC(=N)N)C(=O)NCCCCCC(=O)N[C@H](CCCNC(=N)N)C(=O)NCCCCCC(=O)N[C@H](CCCNC(=N)N)C(=O)NCCCCCC(=O)N[C@H](CCCNC(=N)N)C(=O)NCCCCCC(=O)N[C@H](Cc1ccc(O)cc1)C(N)=O)C(C)C)C(C)C
B7: Compound 25 (peptide)
peptide: Ac-[dL][dNle][dR][dS][dV][dR][dL][dR][dV]G[dL][dR][Ahx][dR][Ahx][dR][Ahx][dR][Ahx][dR][Ahx][dR]-NH2
SMILES: CCCC[C@@H](NC(=O)[C@@H](CC(C)C)NC(C)=O)C(=O)N[C@H](CCCNC(=N)N)C(=O)N[C@H](CO)C(=O)N[C@@H](C(=O)N[C@H](CCCNC(=N)N)C(=O)N[C@H](CC(C)C)C(=O)N[C@H](CCCNC(=N)N)C(=O)N[C@@H](C(=O)NCC(=O)N[C@H](CC(C)C)C(=O)N[C@H](CCCNC(=N)N)C(=O)NCCCCCC(=O)N[C@H](CCCNC(=N)N)C(=O)NCCCCCC(=O)N[C@H](CCCNC(=N)N)C(=O)NCCCCCC(=O)N[C@H](CCCNC(=N)N)C(=O)NCCCCCC(=O)N[C@H](CCCNC(=N)N)C(=O)NCCCCCC(=O)N[C@H](CCCNC(=N)N)C(N)=O)C(C)C)C(C)C
B8: Compound 9 (peptide)
peptide: Ac-[dL][dNle][dR][dS][dV][dR][dL][dR][dV]G[dL][dR][dK][dR][dR][dR][dR][dR][dR][dR]-NH2
SMILES: CCCC[C@@H](NC(=O)[C@@H](CC(C)C)NC(C)=O)C(=O)N[C@H](CCCNC(=N)N)C(=O)N[C@H](CO)C(=O)N[C@@H](C(=O)N[C@H](CCCNC(=N)N)C(=O)N[C@H](CC(C)C)C(=O)N[C@H](CCCNC(=N)N)C(=O)N[C@@H](C(=O)NCC(=O)N[C@H](CC(C)C)C(=O)N[C@H](CCCNC(=N)N)C(=O)N[C@H](CCCCN)C(=O)N[C@H](CCCNC(=N)N)C(=O)N[C@H](CCCNC(=N)N)C(=O)N[C@H](CCCNC(=N)N)C(=O)N[C@H](CCCNC(=N)N)C(=O)N[C@H](CCCNC(=N)N)C(=O)N[C@H](CCCNC(=N)N)C(=O)N[C@H](CCCNC(=N)N)C(N)=O)C(C)C)C(C)C
B9: Compound 11 (peptide)
peptide: Ac-[dL][dNle][dR]G[dV][dR][dL][dR][dV]G[dL][dR][dK][dR][dR][dR][dR]G[dY]-NH2
SMILES: CCCC[C@@H](NC(=O)[C@@H](CC(C)C)NC(C)=O)C(=O)N[C@H](CCCNC(=N)N)C(=O)NCC(=O)N[C@@H](C(=O)N[C@H](CCCNC(=N)N)C(=O)N[C@H](CC(C)C)C(=O)N[C@H](CCCNC(=N)N)C(=O)N[C@@H](C(=O)NCC(=O)N[C@H](CC(C)C)C(=O)N[C@H](CCCNC(=N)N)C(=O)N[C@H](CCCCN)C(=O)N[C@H](CCCNC(=N)N)C(=O)N[C@H](CCCNC(=N)N)C(=O)N[C@H](CCCNC(=N)N)C(=O)N[C@H](CCCNC(=N)N)C(=O)NCC(=O)N[C@H](Cc1ccc(O)cc1)C(N)=O)C(C)C)C(C)C

Molecular target: human RAD51 (human) (UniProt Q06609)
Experiment: cell-based or functional assay

Sequence of human RAD51 (human) (Q06609 2-339 limits assumed): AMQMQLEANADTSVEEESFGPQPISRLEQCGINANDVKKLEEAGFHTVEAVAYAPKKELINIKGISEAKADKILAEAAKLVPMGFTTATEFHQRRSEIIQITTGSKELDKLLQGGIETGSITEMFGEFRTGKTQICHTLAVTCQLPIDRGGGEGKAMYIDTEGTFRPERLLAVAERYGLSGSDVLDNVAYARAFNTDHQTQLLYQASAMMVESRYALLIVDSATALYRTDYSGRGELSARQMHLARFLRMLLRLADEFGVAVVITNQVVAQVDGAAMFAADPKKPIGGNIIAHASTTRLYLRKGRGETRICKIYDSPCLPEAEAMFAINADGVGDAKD

Binder | IC50 [µM]
B1 | 6.2
B2 | 8.6
B3 | 25
B4 | 18
B5 | 20.6
B6 | 6.2
B7 | 14
B8 | 20
B9 | 9
